Reference: the supplement of paper PMC12042874
± gives the uncertainty stated by the source.

assay: amyloid nucleation score (Sup35N fusion, yeast selection) (log enrichment); library NNK3; higher = more nucleation; inactive = no reads after selection
Procedure, shortened: (§1)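 On medium lacking adenine and uracil, psi-negative yeast expressing peptides of 20 random codons fused to Sup35N were grown 7 days at 30°C after a 24-hour induction with 100 μM copper sulfate. Illumina sequencing of input and output plasmid inserts gave the reads, and sequences under 100 input reads were excluded. The nucleation score is the DiMSum log enrichment of output over input reads, centred on the mode score of non-aggregating sequences.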

| Substance | amyloid nucleation score |
| --- | --- |
| YSSQLILTYDTRL | inactive |
| YSVAHQIPDDDRQGE | inactive |
| YSVNMLFAAS | inactive |
| YSVPRKSIICIKFDGFWRCV | 1.96 ± 0.096 |
| YSVVDEKVALSSSWHSCLPL | inactive |
| YTCNSWILDANNLANEPVSK | inactive |
| YTDTYSSLKDLPTGINCYNI | inactive |
| YTIMRNYGFLGARISRGSGS | inactive |
| YTLPGIQAGFWARCVSHTRL | inactive |
| YTLVDRSICT | inactive |
| YTPGLPSDFN | inactive |
| YTSGLVNFVVMDPGL | inactive |
| YTSLCASVNGGLTIS | -0.464 ± 0.8 |
| YTWDVGHLKNSSSVYWKLLR | inactive |
| YVCCYARNDRRFSWERRHLS | inactive |
| YVCDRL | inactive |
| YVCGKF | inactive |
| YVCLYEDLTYIA | inactive |
| YVCRRVSQDVRNLTKSVMCV | inactive |
| YVGLDVVPGVLGIGFILLYD | inactive |
| YVNECFSVSLICCYMLFYN | 1.52 ± 0.072 |
| YVNSNWNNISAQASNSFSGR | inactive |
| YVNTDVIVHENVFLLNSHNS | 1.69 ± 0.089 |
| YVRIQRMRFYSCEHWVHHIG | inactive |

| Substance | amyloid nucleation score |
| --- | --- |
| YVSKVYLDH | inactive |
| YVVAGS | inactive |
| YVVHRLSRVFQLANLYYYAK | inactive |
| YVVREHYNGCATPN | inactive |
| YWDCGLCVNEMGRFICCLGG | inactive |
| YWIAIFTLHFLLDPRFRNSM | inactive |
| YWQWSNV | inactive |
| YWSAVHEDYHTASMMEPLWW | inactive |
| YWVLRFRSSCGYSRMRLGPR | inactive |
| YYAFPLYKKSFYRIPTNVWA | inactive |
| YYLCVVPLRLLGRCASWSFG | inactive |
| YYLNKVVSIVNRLFVAFAPC | inactive |
| YYLRKVKRKENTSMLHAAFS | inactive |
| YYLSLHR | inactive |
| YYNDSPAFHLRVR | inactive |
| YYNVAMRCRSHHTRMSIFWC | inactive |
| YYRSCWLSLCWCYHYCYGVD | 0.346 ± 0.61 |
| YYSGCVLIRRILYLGRVGSP | inactive |
| YYSMTKNARCGHSFEAKSLF | inactive |
| YYSSWLFTGMVGSYTFTALC | inactive |
| YYVSRVSKMCWLRDVRWISI | inactive |
| YYWTKGGFKEITI | inactive |
| YYYGKWYLYEKHSVVFRGCR | inactive |

assay: amyloid nucleation score (Sup35N fusion, yeast selection) (log enrichment); library NNK2; higher = more nucleation; inactive = no reads after selection
Procedure, shortened: as §1

| Substance | amyloid nucleation score |
| --- | --- |
| AAIMDTKVWLPETWHTF | 4.86 ± 0.049 |
| AALPFHEVPTGLMITRAFWD | 3.72 ± 0.13 |
| AAPVMH | -0.354 ± 0.76 |
| AAWIAMCRILKQPTRCGHFL | 6.15 ± 0.073 |
| ACAMFSKRSHSITSVVMGYG | 0.29 ± 0.48 |
| ACDSAIIGWNKIT | 0.504 ± 0.54 |
| ACETCPAAEIYLICGTWKSR | 9.36 ± 0.034 |
| ACLLLRSMFSKQRLTFR | -0.38 ± 0.76 |
| ACNFFPLI | 3.29 ± 0.065 |
| ACNSRHHEFMSSKFYSATQL | -1.3 ± 0.78 |
| ACQHSG | 4.36 ± 0.048 |
| ACSQLSYWTFHSPWP | 4.07 ± 0.072 |
| ACVCHREGCVAKGIIVM | 0.237 ± 1 |
| ACVWNDIEGMNTFTVNSFFL | 3.39 ± 0.16 |
| ADQSYLRNCIFWRQMILTRY | -0.193 ± 0.39 |
| ADRSVGGFNCVSFLYAVN | 4.02 ± 0.076 |
| AEGSDGCLKLNGAITIGHMI | inactive |
| AEGVSL | -0.554 ± 1 |

| Substance | amyloid nucleation score |
| --- | --- |
| AFEDVDVQS | 0.94 ± 0.32 |
| AFEFQYFIGGFRTRIMNCVF | inactive |
| AFEPDIK | -0.738 ± 0.62 |
| AFIYYFNLTSAHYFPMRQMF | inactive |
| AFRDRWLKRMKLTYVVGCIN | -0.17 ± 0.45 |
| AFVSSQVSTYYNFRTKDYSW | 3.68 ± 0.098 |
| AGAHVVKAIHFSLYGNEGLT | 0.6 ± 0.74 |
| AGCGIPALTYNNRRAKTHAQ | 0.901 ± 0.53 |
| AGELGLNIYVLSIYK | 5.26 ± 0.067 |
| AGEYDLIFYLDFYMGNEVIS | 2.29 ± 0.13 |
| AGFMHVCYGSGQHRSKVDGC | 2.93 ± 0.082 |
| AGILLYHPQNMHDSPLQMTR | 3.71 ± 0.099 |
| AGNQIRIRASTCASMLGWDL | 3.83 ± 0.051 |
| AGTFKRWPLGYECFVSERIG | -0.803 ± 0.49 |
| AHCIFVLDGAKFRLWCLGSG | 1.11 ± 0.41 |
| AHIREMNVSGGCWLVQWVSK | 9.497 ± 0.038 |
| AHIVGMSSSWRLKRYISIES | 0.768 ± 0.43 |
| AHRYGR | 1.57 ± 0.43 |
